What is called Kd is the equilibrium constant for the complex coming apart. Read a high Kd as lower affinity.

To fix the notation:
B1: GST-FliJ(Δ13–24) (natural protein)
chain: MAQHGALETLKDLGEMRRGCQQAEEQLKMLIDYQNEYRSNLNTDMGNGIASNRWINYQQFIQTLEKAIEQHRLQLTQWTQKVDLALKSWREKKQRLQAWQTLQDRQTAAALLAENRMDQKKMDEFAQRAAMRKPE
notes: FliJ of Salmonella enterica serovar Typhimurium with residues 13-24 deleted; also called GST-J(Δ13–24)
B2: His-FlgN (natural protein)
chain: MTRLSEILDQMTTVLNDLKTVMDAEQQQLSVGQINGSQLQRITEEKSSLLATLDYLEQQRRLEQNAQRSANDDIAERWQAITEKTQHLRDLNQHNGWLLEGQIERNQQALEVLKPHQEPTLYGADGQTSVSHRGGKKISI
notes: FlgN of Salmonella enterica serovar Typhimurium; source: E. coli BL21 (DE3) Star, in lysate or purified (Ni-NTA)

Test [1] addresses B2. Briefly: SPR; GST-FliJ or GST-FliJ(Δ13–24) captured through immobilised anti-GST antibody on a CM5 chip; His-FlgN flowed over at 20 µl/min; 10 mM HEPES pH 7.4, 0.15 M NaCl, 3 mM EDTA, 0.005% Surfactant P20; 25 °C; steady-state analysis, 1 to 1 binding model. As to conditions: both partners purified. In general terms: SPR reads the build-up and loss of mass on a sensor chip optically.

Test [2] addresses T1, GST-FliJ (Salmonella enterica serovar Typhimurium, UniProt P0A1K1 1-147).
T1 construct: FliJ, flagellar export protein of Salmonella enterica serovar Typhimurium; also called GST-J; source: Salmonella MMHI0117, over-produced, in lysate
The description is as above. To be noted: both partners purified.

Consider B1, for which binding in test [1] was put at a Kd of 7.74 ± 0.12 µM. In test [2], B2 came in with a Kd of 27.4 ± 13 µM.
